In patent US20220089730A1 (IMAGINAB, published 2022):

Assays:
[1] = molecular target: T1, PSMA (Prostate-Specific Membrane Antigen), glutamate carboxypeptidase 2 (Homo sapiens, UniProt Q04609 1-750); experiment: flow cytometry (FACS) on C4-2 XCL cells
T1 construct: also called FOLH1; target antigen expressed on LNCaP-AR cells

[2] = molecular target: T1, PSMA (Prostate-Specific Membrane …); experiment: flow cytometry (FACS) on LNCaP-AR cells and on C4-2 XCL cells

T1 sequence (Q04609 whole entry): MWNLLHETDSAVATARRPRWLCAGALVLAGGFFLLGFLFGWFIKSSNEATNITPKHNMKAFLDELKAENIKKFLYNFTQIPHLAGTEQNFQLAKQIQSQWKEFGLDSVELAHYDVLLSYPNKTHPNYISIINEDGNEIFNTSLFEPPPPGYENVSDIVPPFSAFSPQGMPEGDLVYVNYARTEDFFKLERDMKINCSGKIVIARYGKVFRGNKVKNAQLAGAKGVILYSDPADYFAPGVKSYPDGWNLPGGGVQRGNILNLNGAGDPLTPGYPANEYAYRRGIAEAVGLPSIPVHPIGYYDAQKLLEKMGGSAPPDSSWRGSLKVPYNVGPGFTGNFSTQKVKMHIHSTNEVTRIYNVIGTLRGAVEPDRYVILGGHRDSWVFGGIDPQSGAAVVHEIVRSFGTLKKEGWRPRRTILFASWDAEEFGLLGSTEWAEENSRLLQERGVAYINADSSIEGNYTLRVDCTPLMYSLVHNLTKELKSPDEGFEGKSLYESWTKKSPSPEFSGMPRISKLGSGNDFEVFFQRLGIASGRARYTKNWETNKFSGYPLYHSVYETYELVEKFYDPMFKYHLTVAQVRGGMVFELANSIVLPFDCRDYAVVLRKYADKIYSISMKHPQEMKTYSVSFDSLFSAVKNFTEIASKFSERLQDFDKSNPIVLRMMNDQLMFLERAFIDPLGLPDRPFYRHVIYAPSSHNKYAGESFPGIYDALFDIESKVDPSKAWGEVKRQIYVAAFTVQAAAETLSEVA

binding result [1] | binding result [2] | Binder
binds |  | IAB2M γ2 EH1 (other, Anti-PSMA minibody: homodimer of scFv-hinge-CH3) DIVMTQSPSSLSASVGDRVTITCKASQDVGTAVDWYQQKPGKAPKLLIYWASTRHTGVPDRFTGSGSGTDFTLTISSLQPEDFADYFCQQYNSYPLTFGGGTKLEIKGSTSGGGSGGGSGGGGSSEVQLVQSGAEVKKPGASVKISCKTSGYTFTEYTIHWVKQASGKGLEWIGNINPNNGGTTYNQKFEDRATLTVDKSTSTAYMELSSLRSEDTAVYYCAAGWNFDYWGQGTTVTVSSERKCCVECPPCPGGGSSGGGSGGQPREPQVYTLPPSREEMTKNQVSLTCLVKGFYPSDIAVEWESNGQPENNYKTTPPMLDSDGSFFLYSKLTVDKSRWQQGNVFSCSVMHEALHNHYTQKSLSLSPGK
 | binds | IAB2M γ1 EH1 (other, Anti-PSMA minibody: homodimer of scFv-hinge-CH3) DIVMTQSPSSLSASVGDRVTITCKASQDVGTAVDWYQQKPGKAPKLLIYWASTRHTGVPDRFTGSGSGTDFTLTISSLQPEDFADYFCQQYNSYPLTFGGGTKLEIKGSTSGGGSGGGSGGGGSSEVQLVQSGAEVKKPGASVKISCKTSGYTFTEYTIHWVKQASGKGLEWIGNINPNNGGTTYNQKFEDRATLTVDKSTSTAYMELSSLRSEDTAVYYCAAGWNFDYWGQGTTVTVSSEPKSCDKTHTCPPCGGGSSGGGSGGQPREPQVYTLPPSRDELTKNQVSLTCLVKGFYPSDIAVEWESNGQPENNYKTTPPVLDSDGSFFLYSKLTVDKSRWQQGNVFSCSVMHEALHNHYTQKSLSLSPGK
 | binds | IAB2M γ1 EH2 (other, Anti-PSMA minibody: homodimer of scFv-hinge-CH3) DIVMTQSPSSLSASVGDRVTITCKASQDVGTAVDWYQQKPGKAPKLLIYWASTRHTGVPDRFTGSGSGTDFTLTISSLQPEDFADYFCQQYNSYPLTFGGGTKLEIKGSTSGGGSGGGSGGGGSSEVQLVQSGAEVKKPGASVKISCKTSGYTFTEYTIHWVKQASGKGLEWIGNINPNNGGTTYNQKFEDRATLTVDKSTSTAYMELSSLRSEDTAVYYCAAGWNFDYWGQGTTVTVSSEPKSSDKTHTCPPCGGGSSGGGSGGQPREPQVYTLPPSRDELTKNQVSLTCLVKGFYPSDIAVEWESNGQPENNYKTTPPVLDSDGSFFLYSKLTVDKSRWQQGNVFSCSVMHEALHNHYTQKSLSLSPGK
